We go through two molecules from patent publication US9120851B2, “Human antibodies to human angiopoietin-like protein 4” (Regeneron Pharmaceuticals, Inc., priority 2009, dated 2015).

One experiment has as its target T1, mANGPTL4-His (Mus musculus, UniProt Q9Z1P8).
T1 sequence (Q9Z1P8 26-410): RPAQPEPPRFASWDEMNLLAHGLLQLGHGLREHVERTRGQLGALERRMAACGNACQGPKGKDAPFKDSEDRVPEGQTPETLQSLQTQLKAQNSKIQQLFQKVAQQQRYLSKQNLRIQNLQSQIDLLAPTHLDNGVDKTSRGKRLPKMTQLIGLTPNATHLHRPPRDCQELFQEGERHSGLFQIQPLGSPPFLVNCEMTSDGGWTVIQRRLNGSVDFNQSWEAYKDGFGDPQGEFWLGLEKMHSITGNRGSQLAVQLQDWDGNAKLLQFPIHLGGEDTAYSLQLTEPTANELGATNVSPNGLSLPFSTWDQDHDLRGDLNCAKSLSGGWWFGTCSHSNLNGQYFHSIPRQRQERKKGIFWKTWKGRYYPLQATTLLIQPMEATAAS
Put plainly: BIACORE cross-reactivity, amine coupled mANGPTL4-His. The experiment is classed as binding. The conditions noted are these: for Specific RU, mANGPTL4-His: chip surface 5233 RU, mAb injected at 3.125-50 μg/mL. The method, then:
Possible cross-reactivity of the anti-hANGPTL4 antibodies to related proteins, i.e., hANGPTL3, human angiopoietin-like protein 5 (hANGPTL5) and mouse ANGPTL4 (mANGPTL4), was tested for the selected antibodies, i.e., H1H268P and H1H284P, using the BIACORE™ system. Briefly, anti-hANGPTL4 antibodies as well as negative controls, i.e., two monoclonal antibodies (Control a and Control b) that are non-binders to any ANGPTL proteins, were injected at 3.125 μg/mL-50 μg/mL over amine coupled chip surfaces of hANGPTL3-His (R&D Systems, cat #3829-AN) at 5228 RU, hANGPTL4-His (R&D Systems, cat #4487-AN) at 6247 RU, hANGPTL5-His (Abnova Corp., cat #H00253935-P01) at 5265 RU, and mANGPTL4-His [R26-S410 of mANGPTL4 (SEQ ID NO: 478) fused with an AS linker to a C-terminal 6-histidine tag] at 5233 RU, respectively. A polyclonal antibody specific for hANGPTL3 (R&D System, cat #BAF3485) was also tested.
For orientation: Surface plasmon resonance follows binding to a sensor surface in real time, without labels.

The target of a further experiment is T2, hANGPTL4(26-148)-mFc (Homo sapiens, UniProt Q9BY76).
T2 construct: amino acid residues 26-148 of human ANGPTL4 fused in-line to mouse IgG2a (hANGPTL4-mFc)
The experiment can be described thus: BIACORE, full mAb or Fab over anti-mFc captured hANGPTL4(26-148)-mFc. The experiment is classed as binding. The method, then:
(§1) Briefly, various concentrations (3.125 nM-100 nM) of anti-hANGPTL4 antibodies (i.e., H1H268 Fab, entire H1H268 mAb, H1H284 Fab, and entire H1H284 mAb) were injected over a low density anti-mFc captured hANGPTL4(26-148)-mFc (˜68±4 RU) surface, or the surface of amino-coupled hANGPTL4(26-406)-His (R&D Systems) (450 RU) or amino-coupled cynomolgus monkey N-terminal region (amino acid residues 1-130 of SEQ ID NO:490) expressed with an C-terminal hexa-histidine tag (MfANGPTL4(1-130)-His) (1,028 RU). Kinetic analysis was performed to measure ka and kd, and KD values and half-life of antigen/antibody complex dissociation were calculated. The results are shown in Table 4 (H1H268P) and Table 5 (H1H284P).

A further experiment has as its target T3, hANGPTL4(26-406)-His (Homo sapiens, UniProt Q9BY76).
T3 construct: purchased R&D Systems
T3 sequence (Q9BY76 26-406): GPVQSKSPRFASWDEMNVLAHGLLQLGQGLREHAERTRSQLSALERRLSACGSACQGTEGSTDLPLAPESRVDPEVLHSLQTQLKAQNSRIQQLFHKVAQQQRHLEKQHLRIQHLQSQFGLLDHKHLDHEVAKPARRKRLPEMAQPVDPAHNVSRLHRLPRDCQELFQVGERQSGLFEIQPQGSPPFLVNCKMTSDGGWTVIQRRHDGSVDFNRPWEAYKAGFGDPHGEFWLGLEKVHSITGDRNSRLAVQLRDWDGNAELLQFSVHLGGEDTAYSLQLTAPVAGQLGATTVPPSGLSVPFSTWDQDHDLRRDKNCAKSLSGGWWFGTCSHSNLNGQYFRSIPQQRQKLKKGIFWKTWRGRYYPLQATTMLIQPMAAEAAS
Put plainly: BIACORE, full mAb or Fab over amino-coupled hANGPTL4(26-406)-His. Format: binding. The conditions noted are these: for RU bound at 50 nM mAb or Fab: amino-coupled 450 RU. The method, then:
as §1

Experiment [1] relates to C57BL/6 mice given hANGPTL4-mFc. The experiment is classed as in vivo. The conditions noted are these: antibody 5 mg/kg s.c.; 24 h later hANGPTL4-mFc 25 μg/mouse i.v.; bled 30 min after; mean±SEM. How it is done: In another set of experiments, selected anti-hANGPTL4 antibodies were tested for their ability to inhibit hANGPTL4-induced increase of triglyceride levels. Measurements of total cholesterol, LDL, NEFA-C and HDL were also made. Briefly, C57BL/6 mice were put into groups of five mice each for each antibody tested. Antibodies were administered at 5 mg/kg dose by subcutaneous injection. Control group I, i.e., mice that received neither anti-hANGPTL4 antibodies nor hANGPTL4, were administered with PBS. Twenty-four hours post-injection of antibody, hANGPTL4-mFc (SEQ ID NO:480) was administered (i.v.) at a dose of 25 μg/mouse to each antibody group. Mice were bled at 30 min after hANGPTL4-mFc injection and lipid levels were determined by ADVIA® 1650 Chemistry System (Siemens). Averages were calculated for each of the measurements of triglycerides, total cholesterol (Total-C), LDL, NEFA-C and HDL for each antibody or control group. Levels of circulating anti-hANGPTL4 antibodies (Serum Ab) were also determined using a standard ELISA assay. Briefly, plates were coated with a goat anti-human Fc antibody (Sigma-Aldrich) to capture Serum Ab. Serum was then added to the plates and captured anti-hANGPTL4 antibodies were detected by chemiluminescence using a horseradish peroxidase (HRP) conjugated goat anti-human IgG antibody (Sigma-Aldrich). Control I: Mice that received PBS, but neither anti-hANGPTL4 antibodies nor hANGPTL4-mFc. Control II: Mice that received a human antibody specific for CD20 (i.e., the mAb having the sequence of 2F2 clone disclosed in US 2008/0260641) and hANGPTL4-mFc.

T2 sequence (Q9BY76 with tags, fused parts or gaps): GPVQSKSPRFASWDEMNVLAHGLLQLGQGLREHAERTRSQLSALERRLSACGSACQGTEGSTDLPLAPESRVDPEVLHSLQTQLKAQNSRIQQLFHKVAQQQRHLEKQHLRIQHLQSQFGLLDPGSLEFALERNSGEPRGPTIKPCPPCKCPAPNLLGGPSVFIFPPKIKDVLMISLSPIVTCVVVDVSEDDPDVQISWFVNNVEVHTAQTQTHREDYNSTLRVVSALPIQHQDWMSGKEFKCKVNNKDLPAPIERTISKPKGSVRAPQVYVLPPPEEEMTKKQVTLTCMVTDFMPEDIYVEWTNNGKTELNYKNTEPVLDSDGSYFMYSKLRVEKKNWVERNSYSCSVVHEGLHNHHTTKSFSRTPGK

B1: H1H284P: anti-hANGPTL4 antibody, hIgG1 isotype, HCVR/LCVR SEQ ID NOs 90/92 (antibody, V domains shown)
VH: QVQLVESGGGVVQPGRSLRLSCAASGFTFSSYGMHWVRQAPGKGLEWMAVISFDGGNKNNADSVKGRFTISRDNSKNTLYLQMNSLRAEDTAVYYCAKEGDRSGHPYFYYYGLDVWGQGTTVTVS
VL: DIQLTQSPSFLSASVGDRVTITCWASQGISSYLAWYQQKPGKAPKLLIYAASTLQSGVPSRFSGSGSETEFTLTISSLQPEDFATYYCQQLHSYPLTFGGGTKVEIK
As for B1, in the experiment with mANGPTL4-His, the “binding to mANGPTL4-His (other related ANGPTL protein), in words” value is reported as “did not bind” and the “Specific RU, mANGPTL4-His” value is listed as 18 RU. Moreover, in the experiment with hANGPTL4(26-148)-mFc (pH 5.75, 25° C.), the ka amounted to 1.09e+06 M⁻¹ s⁻¹ and the kd was found to be 8.91e-05 s⁻¹. In the experiment with hANGPTL4(26-148)-mFc (pH 7.2, 25° C.), this molecule yielded a ka of 274000 M⁻¹ s⁻¹ and a kd of 5.36e-05 s⁻¹. In the experiment with hANGPTL4(26-406)-His (pH 5.75, 25° C.), the ka was determined as 1.93e+06 M⁻¹ s⁻¹, the kd stood at 0.000272 s⁻¹ and the “RU bound at 50 nM mAb or Fab” value turned out to be 101. In the experiment with hANGPTL4(26-406)-His (pH 7.2, 25° C.), the ka is 850000 M⁻¹ s⁻¹, the kd was found to be 8.85e-05 s⁻¹ and the “RU bound at 50 nM mAb or Fab” value is given as 77. In experiment [1], this molecule returned an HDL of 39.60 ± 3.46 mg/dL, an LDL of 4.98 ± 0.87 mg/dL, an NEFA-C of 0.99 ± 0.11 mg/dL and a Total-C of 80.80 ± 6.40 mg/dL. In experiment [1], this molecule yielded a Triglycerides of 99.20 ± 9.52 mg/dL.

B2: H1H268P: anti-hANGPTL4 antibody, hIgG1 isotype, HCVR/LCVR SEQ ID NOs 42/44 (antibody, V domains shown)
VH: QVQLQESGAGLLKPSETLSLTCTVYGGSFSIHHWTWIRHPPGKGLEWIGEINHRGSTNYNPSLKSRVTISIDTSKNQFSLKLSAVTAADTAVYYCARGLRFLDWLSSYFDYWGQGTLVTVSS
VL: DIQMTQSPSSLSASVGDRVTITCRASQGISDYLAWYQQKPGKVPNLLIYAASALQSGVPSRFSGSGSGTDFTLTISSLQPEDVATYYCQNYNTAPLTFGGGTKVEIK
Turning to B2, in the experiment with mANGPTL4-His, the “binding to mANGPTL4-His (other related ANGPTL protein), in words” value is listed as “did not bind” and the “Specific RU, mANGPTL4-His” value is on record as −7 RU. In the experiment with hANGPTL4(26-148)-mFc (pH 5.75, 25° C.), this molecule came in with a ka of 628000 M⁻¹ s⁻¹ and a kd of 0.000138 s⁻¹. In the experiment with hANGPTL4(26-148)-mFc (pH 7.2, 25° C.), the ka worked out at 153000 M⁻¹ s⁻¹ and the kd was determined as 9.59e-05 s⁻¹. In the experiment with hANGPTL4(26-406)-His (pH 5.75, 25° C.), the ka came out at 923000 M⁻¹ s⁻¹, the kd worked out at 0.000446 s⁻¹ and the “RU bound at 50 nM mAb or Fab” value is reported as 45. Besides, in the experiment with hANGPTL4(26-406)-His (pH 7.2, 25° C.), the ka was determined as 489000 M⁻¹ s⁻¹, the kd is 0.0002 s⁻¹ and the “RU bound at 50 nM mAb or Fab” value came to 38. In experiment [1], the HDL is recorded as 35.94 ± 1.64 mg/dL, the LDL stood at 4.94 ± 0.51 mg/dL, the NEFA-C turned out to be 0.82 ± 0.04 mg/dL and the Triglycerides was determined as 92.60 ± 11.44 mg/dL.
